Test results published in paper PMC5028891 (Scientific Reports, 2016).

Target: T1, human claudin-4 (full-length), wild type (human, UniProt O14493 1-209)
T1 construct: also called claudin-4 wild type; WT
T1 sequence (looked up): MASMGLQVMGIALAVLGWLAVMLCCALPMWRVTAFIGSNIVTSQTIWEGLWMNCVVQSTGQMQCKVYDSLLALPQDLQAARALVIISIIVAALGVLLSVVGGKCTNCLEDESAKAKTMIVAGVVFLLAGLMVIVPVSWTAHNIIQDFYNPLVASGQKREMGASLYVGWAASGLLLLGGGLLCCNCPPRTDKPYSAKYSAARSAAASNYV
Assay: pull-down
Settings: both partners purified

B1: glutathione-S-transferase-tagged C-CPE (residues 185′–319′), wild type (domain or fragment)
chain: RCVLTVPSTDIEKEILDLAAATERLNLTDALNSNPAGNLYDWRSSNSYPWTQKLNLHLTITATGQKYRILASKIVDFNIYSNNFNNLVKLEQSLGDGVKDHYVDISLDAGQYVLVMKANSSYSGNYPYSILFQKF
- binding result: binds
